# Data as given in article PMC4528709, “Determinants in HIV-2 Env and tetherin required for functional interaction” (Retrovirology, 2015).
# Target: T1, GFP-tagged ROD10 Env_(Y707A) (HIV-2 (strain ROD10), UniProt P04577 20-858, Y707A)
# T1 construct: Env protein of HIV-2 strain ROD10 with a point mutation that disrupts an endocytosis motif in the cytoplasmic tail (pROD10_(Y707A) Env); also called Y707A mutant; source: 293T, co-transfected (2 ug plasmid), in lysate; not shown: eGFP, C-terminal, kept
# T1 sequence (looked up): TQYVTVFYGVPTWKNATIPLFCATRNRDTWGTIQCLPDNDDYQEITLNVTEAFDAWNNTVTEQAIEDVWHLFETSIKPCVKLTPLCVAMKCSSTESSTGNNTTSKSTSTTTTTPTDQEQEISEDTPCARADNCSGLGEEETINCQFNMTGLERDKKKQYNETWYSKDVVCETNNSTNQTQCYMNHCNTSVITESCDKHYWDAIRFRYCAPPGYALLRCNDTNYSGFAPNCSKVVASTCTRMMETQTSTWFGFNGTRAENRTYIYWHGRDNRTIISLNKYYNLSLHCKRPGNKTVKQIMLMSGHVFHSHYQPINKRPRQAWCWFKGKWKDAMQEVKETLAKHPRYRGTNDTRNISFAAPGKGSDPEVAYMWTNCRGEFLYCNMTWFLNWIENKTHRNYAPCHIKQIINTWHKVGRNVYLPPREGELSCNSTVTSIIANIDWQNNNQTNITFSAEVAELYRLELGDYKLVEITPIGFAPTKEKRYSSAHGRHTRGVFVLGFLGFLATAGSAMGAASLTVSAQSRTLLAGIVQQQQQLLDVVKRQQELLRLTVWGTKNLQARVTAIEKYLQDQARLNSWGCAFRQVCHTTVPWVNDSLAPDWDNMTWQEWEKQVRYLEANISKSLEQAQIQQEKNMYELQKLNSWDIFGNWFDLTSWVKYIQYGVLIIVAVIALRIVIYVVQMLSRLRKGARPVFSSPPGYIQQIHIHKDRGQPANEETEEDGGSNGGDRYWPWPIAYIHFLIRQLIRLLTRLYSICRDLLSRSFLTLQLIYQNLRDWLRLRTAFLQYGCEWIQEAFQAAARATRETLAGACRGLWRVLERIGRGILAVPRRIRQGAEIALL
# Assay: co-IP; quantification of tetherin immunoprecipitated by GFP-tagged Env, corrected for the cellular level of the Env protein, n = 3 experiments, data not shown
# Conditions: partners not purified
binder,measurement,value
"tetherin/BST-2 (natural protein, tetherin/BST-2, human; untagged expression plasmid described in earlier work [20, 29, 38]; also called wild-type tetherin; source: 293T, co-transfected (200 ng plasmid), in lysate) MASTSYDYCRVPMEDGDKRCKLLLGIGILVLLIIVILGVPLIIFTIKANSEACRDGLRAVMECRNVTHLLQQELTEAQKGFQDVEAQAATCNHTVMALMASLDAEKAQGQKKVEELEGEITTLNHKLQDASAEVERLRRENQVLSVRIADKKYYPSSQDSS",efficiency at immunoprecipitating tetherin relative to the WT ROD10 Env,67%
